Reference: patent US20090176264A1

How the values were obtained:
[1] = biological target: BSA (control) (bovine) (UniProt P02769); experiment: ELISA, BSA control wells, sFlt at 1800 ng/mL, detected with RD-1 + RD-2 anti-sFlt
[2] = biological target: BSA (control) (bovine) (UniProt P02769); experiment: ELISA, BSA control wells, sFlt at 600 ng/mL, detected with RD-1 + RD-2 anti-sFlt
[3] = biological target: BSA (control) (bovine) (UniProt P02769); experiment: ELISA, BSA control wells, sFlt at 66.67 ng/mL, detected with RD-1 + RD-2 anti-sFlt
[4] = biological target: BSA (control) (bovine) (UniProt P02769); experiment: as above; remark: listed apart in the source
[5] = biological target: BSA (control) (bovine) (UniProt P02769); experiment: ELISA, BSA control wells, sFlt at 600 ng/mL, detected with RD-1 + RD-2 anti-sFlt; remark: listed apart in the source
[6] = biological target: BSA (control) (bovine) (UniProt P02769); experiment: ELISA, BSA control wells, sFlt at 200 ng/mL, detected with RD-1 + RD-2 anti-sFlt
[7] = biological target: BSA (control) (bovine) (UniProt P02769); experiment: as above; remark: listed apart in the source

BSA (control) (bovine), sequence (P02769 25-607 limits assumed): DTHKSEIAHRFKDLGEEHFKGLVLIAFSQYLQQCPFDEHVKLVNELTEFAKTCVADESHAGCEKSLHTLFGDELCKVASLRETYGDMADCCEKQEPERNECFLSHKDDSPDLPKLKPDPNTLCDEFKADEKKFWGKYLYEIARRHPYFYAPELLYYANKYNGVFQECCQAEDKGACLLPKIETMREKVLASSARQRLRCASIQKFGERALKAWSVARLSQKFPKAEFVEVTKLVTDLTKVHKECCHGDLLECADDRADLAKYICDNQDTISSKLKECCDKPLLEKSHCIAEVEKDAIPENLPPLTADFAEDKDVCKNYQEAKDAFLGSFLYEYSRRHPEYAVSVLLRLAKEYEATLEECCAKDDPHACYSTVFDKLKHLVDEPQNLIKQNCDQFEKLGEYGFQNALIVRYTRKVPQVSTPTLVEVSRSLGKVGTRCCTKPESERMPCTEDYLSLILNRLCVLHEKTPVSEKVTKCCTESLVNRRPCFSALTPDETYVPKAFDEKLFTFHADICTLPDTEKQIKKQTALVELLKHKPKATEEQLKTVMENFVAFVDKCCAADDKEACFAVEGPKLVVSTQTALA
Full length sFlt (soluble fms-like tyrosine kinase 1, sFlt-1), Scios Inc. Lot# 9225-89 (from UniProt P17948 27-656) (receptor), sequence (P17948 other isoform, or with tags, fused parts or gaps limits assumed): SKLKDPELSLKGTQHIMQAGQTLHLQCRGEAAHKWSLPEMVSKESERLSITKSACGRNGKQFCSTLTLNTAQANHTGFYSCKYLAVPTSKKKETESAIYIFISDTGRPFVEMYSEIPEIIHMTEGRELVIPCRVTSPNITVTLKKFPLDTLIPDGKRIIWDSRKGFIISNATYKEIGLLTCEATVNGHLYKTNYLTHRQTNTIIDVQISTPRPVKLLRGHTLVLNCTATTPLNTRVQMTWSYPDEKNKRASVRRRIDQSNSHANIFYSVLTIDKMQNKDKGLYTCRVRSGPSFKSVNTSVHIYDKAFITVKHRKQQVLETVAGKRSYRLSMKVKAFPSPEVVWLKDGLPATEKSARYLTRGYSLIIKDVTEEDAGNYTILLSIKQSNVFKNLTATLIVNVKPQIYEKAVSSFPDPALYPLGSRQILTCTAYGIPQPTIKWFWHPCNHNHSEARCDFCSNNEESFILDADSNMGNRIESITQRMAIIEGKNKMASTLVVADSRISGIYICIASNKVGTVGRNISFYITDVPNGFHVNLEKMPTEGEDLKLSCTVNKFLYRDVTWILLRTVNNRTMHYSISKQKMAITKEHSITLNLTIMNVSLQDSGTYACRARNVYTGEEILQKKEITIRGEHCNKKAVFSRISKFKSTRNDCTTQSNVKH
Full length sFlt (soluble fms-like tyrosine kinase 1, sFlt-1), Scios Inc. Lot# 9225-89 (from UniProt P17948 27-656), sequence (P17948 other isoform, or with tags, fused parts or gaps limits assumed): as above

Row | Substance | OD at 492 nm [1] [OD] | OD at 492 nm [2] [OD] | OD at 492 nm [3] [OD] | OD at 492 nm [4] [OD] | OD at 492 nm [5] [OD] | OD at 492 nm [6] [OD] | OD at 492 nm [7] [OD]
1 | Full length sFlt (soluble fms-like tyrosine kinase 1, sFlt-1), Scios Inc. Lot# 9225-89 (from UniProt P17948 27-656) | 0.004 |  |  |  |  |  | 
2 | Full length sFlt (soluble fms-like tyrosine kinase 1, sFlt-1), Scios Inc. Lot# 9225-89 (from UniProt P17948 27-656) (receptor) | 0.009 | 0.006 | 0.003 | 0.02 | 0.008 | 0.005 | 0.01
